T1: Var97, a variant of D519VE665V-FVIII with the additional amino acid substitutions I371P, V374F, V559L, R562W and Q565E
T1 sequence: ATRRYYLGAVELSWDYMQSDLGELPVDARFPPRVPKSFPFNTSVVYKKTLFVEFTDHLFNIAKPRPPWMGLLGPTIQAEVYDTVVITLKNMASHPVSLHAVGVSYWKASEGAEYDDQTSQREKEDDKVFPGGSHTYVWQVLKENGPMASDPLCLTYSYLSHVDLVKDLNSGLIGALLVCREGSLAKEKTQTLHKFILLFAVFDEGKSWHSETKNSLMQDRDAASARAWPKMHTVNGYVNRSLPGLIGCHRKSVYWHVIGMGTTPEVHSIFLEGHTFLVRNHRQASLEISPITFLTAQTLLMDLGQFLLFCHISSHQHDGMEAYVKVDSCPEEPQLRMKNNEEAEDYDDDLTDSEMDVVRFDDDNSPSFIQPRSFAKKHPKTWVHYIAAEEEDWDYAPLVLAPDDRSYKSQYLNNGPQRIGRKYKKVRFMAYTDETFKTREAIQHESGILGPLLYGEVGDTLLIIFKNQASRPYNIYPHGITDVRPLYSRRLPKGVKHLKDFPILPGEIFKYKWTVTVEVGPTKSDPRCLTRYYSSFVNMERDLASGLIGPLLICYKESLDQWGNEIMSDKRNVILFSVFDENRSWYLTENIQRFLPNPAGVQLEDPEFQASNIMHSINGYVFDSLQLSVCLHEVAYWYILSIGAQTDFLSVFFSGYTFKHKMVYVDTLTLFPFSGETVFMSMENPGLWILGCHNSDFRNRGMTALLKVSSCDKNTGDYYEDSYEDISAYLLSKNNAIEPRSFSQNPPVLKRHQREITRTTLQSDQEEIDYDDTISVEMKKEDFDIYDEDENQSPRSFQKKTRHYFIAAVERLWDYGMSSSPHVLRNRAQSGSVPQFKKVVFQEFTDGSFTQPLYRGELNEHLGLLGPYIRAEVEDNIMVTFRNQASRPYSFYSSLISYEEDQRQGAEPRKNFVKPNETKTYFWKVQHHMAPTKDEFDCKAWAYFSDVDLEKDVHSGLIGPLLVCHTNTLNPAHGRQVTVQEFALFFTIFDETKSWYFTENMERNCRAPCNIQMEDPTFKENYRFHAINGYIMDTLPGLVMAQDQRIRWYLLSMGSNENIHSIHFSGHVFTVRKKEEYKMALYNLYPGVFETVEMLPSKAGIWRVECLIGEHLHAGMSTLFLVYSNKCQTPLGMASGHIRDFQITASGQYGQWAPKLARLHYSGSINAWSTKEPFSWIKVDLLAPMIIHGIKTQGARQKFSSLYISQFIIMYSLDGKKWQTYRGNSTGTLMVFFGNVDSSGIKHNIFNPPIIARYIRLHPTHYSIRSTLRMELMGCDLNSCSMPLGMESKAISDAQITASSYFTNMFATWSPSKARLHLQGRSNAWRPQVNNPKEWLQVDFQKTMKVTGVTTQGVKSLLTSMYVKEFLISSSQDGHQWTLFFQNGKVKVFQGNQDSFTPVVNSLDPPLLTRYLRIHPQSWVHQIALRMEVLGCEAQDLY

T2: Var97-R336I
T2 sequence: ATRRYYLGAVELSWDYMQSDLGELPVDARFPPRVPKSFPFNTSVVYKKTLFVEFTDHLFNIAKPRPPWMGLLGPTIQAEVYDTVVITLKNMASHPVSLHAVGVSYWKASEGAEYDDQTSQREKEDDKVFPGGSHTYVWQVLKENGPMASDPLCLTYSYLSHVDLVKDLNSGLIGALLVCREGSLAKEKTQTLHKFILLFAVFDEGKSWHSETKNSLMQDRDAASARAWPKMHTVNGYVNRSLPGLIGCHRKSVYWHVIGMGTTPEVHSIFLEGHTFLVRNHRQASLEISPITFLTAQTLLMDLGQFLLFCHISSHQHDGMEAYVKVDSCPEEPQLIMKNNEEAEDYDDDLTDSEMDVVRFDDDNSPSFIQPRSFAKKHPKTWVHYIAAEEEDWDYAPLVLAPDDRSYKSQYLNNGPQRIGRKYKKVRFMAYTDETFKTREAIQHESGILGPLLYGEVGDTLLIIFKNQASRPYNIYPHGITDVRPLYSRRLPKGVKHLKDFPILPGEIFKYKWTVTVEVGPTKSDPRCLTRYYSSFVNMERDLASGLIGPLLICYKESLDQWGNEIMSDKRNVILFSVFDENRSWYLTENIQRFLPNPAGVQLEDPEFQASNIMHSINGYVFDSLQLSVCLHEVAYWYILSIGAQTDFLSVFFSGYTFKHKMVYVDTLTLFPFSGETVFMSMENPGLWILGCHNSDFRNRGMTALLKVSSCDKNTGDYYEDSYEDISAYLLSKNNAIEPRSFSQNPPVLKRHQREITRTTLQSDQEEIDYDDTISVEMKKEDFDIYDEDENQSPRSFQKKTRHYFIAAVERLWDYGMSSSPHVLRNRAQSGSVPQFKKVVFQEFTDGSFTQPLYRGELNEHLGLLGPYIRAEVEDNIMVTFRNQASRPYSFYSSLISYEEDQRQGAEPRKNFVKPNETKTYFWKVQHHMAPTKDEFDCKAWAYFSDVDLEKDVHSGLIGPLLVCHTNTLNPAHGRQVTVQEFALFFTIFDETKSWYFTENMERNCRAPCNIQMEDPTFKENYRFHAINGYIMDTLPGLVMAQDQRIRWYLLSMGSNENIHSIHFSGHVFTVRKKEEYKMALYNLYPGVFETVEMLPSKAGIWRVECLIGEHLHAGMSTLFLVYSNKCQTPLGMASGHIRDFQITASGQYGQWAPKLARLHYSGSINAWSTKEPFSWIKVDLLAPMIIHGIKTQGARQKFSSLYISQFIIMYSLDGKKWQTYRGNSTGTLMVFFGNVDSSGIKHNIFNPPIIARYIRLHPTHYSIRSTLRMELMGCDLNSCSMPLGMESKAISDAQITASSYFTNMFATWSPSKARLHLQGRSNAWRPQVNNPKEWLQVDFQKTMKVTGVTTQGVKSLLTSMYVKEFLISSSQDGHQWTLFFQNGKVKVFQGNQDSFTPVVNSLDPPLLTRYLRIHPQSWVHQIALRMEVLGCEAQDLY


Experiments:
[1] = system: T1, Var97, a variant of D519VE665V-FVIII with the additional amino acid substitutions I371P, V374F, V559L, R562W and Q565E
Var97-R336I = system: T2, Var97-R336I
[2] = target: T3, Factor IXa (activated Coagulation Factor IX) (human, UniProt P00740 47-191; P00740 227-461, limits assumed); experiment: FXase kinetic assay: thrombin-activated FVIII fixed at 10 pM, FIXa varied 0-10 nM, FXa generation read with S-2765 (functional affinity)
T3 construct: also called FIXa
T3 sequence (P00740 47-191 limits assumed, form in doubt, chain 1 of 2): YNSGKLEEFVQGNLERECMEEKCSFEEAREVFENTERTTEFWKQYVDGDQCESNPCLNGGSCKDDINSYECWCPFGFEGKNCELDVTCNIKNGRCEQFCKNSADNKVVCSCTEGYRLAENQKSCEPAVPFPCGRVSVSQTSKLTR
T3 sequence (P00740 227-461 limits assumed, form in doubt, chain 2 of 2): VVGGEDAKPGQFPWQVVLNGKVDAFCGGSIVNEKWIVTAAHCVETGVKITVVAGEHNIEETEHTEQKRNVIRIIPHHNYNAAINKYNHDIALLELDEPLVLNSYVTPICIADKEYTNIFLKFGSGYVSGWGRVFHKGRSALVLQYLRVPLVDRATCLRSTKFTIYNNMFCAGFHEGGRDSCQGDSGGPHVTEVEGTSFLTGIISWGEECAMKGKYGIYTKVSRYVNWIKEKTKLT
Description: The function of the Var97 variant in its physiologic enzyme complex was examined using FXase kinetic assays. These FXase kinetic assays were performed in 10 mM HEPES pH 7.4, 150 mM NaCl, 5 mM CaCl2, 0.01% Tween 20, 0.01% BSA and 10 μM PL (40:40:20, v/v/v PS:PC:PE). In these FXase kinetic assays, purified FVIIIa proteins were generated by incubation with 20 nM thrombin. The FVIII level was held fixed at 10 pM and reacted with varying concentrations of FIXa (0-10 nM), or the FIXa level was held fixed at (100 pM) and the level of thrombin activated FVIIIa was varied (0-10 nM). FX (150 nM) was added to either types of reactions, and after 1 min., the FXase reactions were stopped by addition to EDTA. The amount of FXa generated in these reactions were measured using the S-2765 chromogenic substrate. FXa generation was then extrapolated from a standard curve relating FXa level to rates of chromogenic substrate cleavage. The data was fit to a standard Michaelis-Menten equation to derive kinetic constants.

fold binding affinity for FIXa over FVIII-BDD [2] [fold] | Molecule | proteolytic cleavage of FVIII by excess FIXa in a FXase reaction (SDS-PAGE, Coomassie Blue) [1] | proteolytic cleavage in the FIXa digestion assay (SDS-PAGE) (Var97-R336I)
 | Factor IXa (activated Coagulation Factor IX) | the Var97 Factor VIII variant shows enhanced proteolytic cleavage by FIXa relative to one or both of BDD and D519VE665V variant FVIII | proteolytic cleavage of Var97-R336I was markedly reduced as compared to Var97
≥ 4 | Var97, a variant of D519VE665V-FVIII with the additional amino acid substitutions I371P, V374F, V559L, R562W and Q565E (other, Purified from HKB11 cells; also called Var97 variant; Var97 Factor VIII variant) ATRRYYLGAVELSWDYMQSDLGELPVDARFPPRVPKSFPFNTSVVYKKTLFVEFTDHLFNIAKPRPPWMGLLGPTIQAEVYDTVVITLKNMASHPVSLHAVGVSYWKASEGAEYDDQTSQREKEDDKVFPGGSHTYVWQVLKENGPMASDPLCLTYSYLSHVDLVKDLNSGLIGALLVCREGSLAKEKTQTLHKFILLFAVFDEGKSWHSETKNSLMQDRDAASARAWPKMHTVNGYVNRSLPGLIGCHRKSVYWHVIGMGTTPEVHSIFLEGHTFLVRNHRQASLEISPITFLTAQTLLMDLGQFLLFCHISSHQHDGMEAYVKVDSCPEEPQLRMKNNEEAEDYDDDLTDSEMDVVRFDDDNSPSFIQPRSFAKKHPKTWVHYIAAEEEDWDYAPLVLAPDDRSYKSQYLNNGPQRIGRKYKKVRFMAYTDETFKTREAIQHESGILGPLLYGEVGDTLLIIFKNQASRPYNIYPHGITDVRPLYSRRLPKGVKHLKDFPILPGEIFKYKWTVTVEVGPTKSDPRCLTRYYSSFVNMERDLASGLIGPLLICYKESLDQWGNEIMSDKRNVILFSVFDENRSWYLTENIQRFLPNPAGVQLEDPEFQASNIMHSINGYVFDSLQLSVCLHEVAYWYILSIGAQTDFLSVFFSGYTFKHKMVYVDTLTLFPFSGETVFMSMENPGLWILGCHNSDFRNRGMTALLKVSSCDKNTGDYYEDSYEDISAYLLSKNNAIEPRSFSQNPPVLKRHQREITRTTLQSDQEEIDYDDTISVEMKKEDFDIYDEDENQSPRSFQKKTRHYFIAAVERLWDYGMSSSPHVLRNRAQSGSVPQFKKVVFQEFTDGSFTQPLYRGELNEHLGLLGPYIRAEVEDNIMVTFRNQASRPYSFYSSLISYEEDQRQGAEPRKNFVKPNETKTYFWKVQHHMAPTKDEFDCKAWAYFSDVDLEKDVHSGLIGPLLVCHTNTLNPAHGRQVTVQEFALFFTIFDETKSWYFTENMERNCRAPCNIQMEDPTFKENYRFHAINGYIMDTLPGLVMAQDQRIRWYLLSMGSNENIHSIHFSGHVFTVRKKEEYKMALYNLYPGVFETVEMLPSKAGIWRVECLIGEHLHAGMSTLFLVYSNKCQTPLGMASGHIRDFQITASGQYGQWAPKLARLHYSGSINAWSTKEPFSWIKVDLLAPMIIHGIKTQGARQKFSSLYISQFIIMYSLDGKKWQTYRGNSTGTLMVFFGNVDSSGIKHNIFNPPIIARYIRLHPTHYSIRSTLRMELMGCDLNSCSMPLGMESKAISDAQITASSYFTNMFATWSPSKARLHLQGRSNAWRPQVNNPKEWLQVDFQKTMKVTGVTTQGVKSLLTSMYVKEFLISSSQDGHQWTLFFQNGKVKVFQGNQDSFTPVVNSLDPPLLTRYLRIHPQSWVHQIALRMEVLGCEAQDLY |  | 

Reference: patent US20160031968A1 (Bayer, published 2016)
